Tests used:
cynomolgus FolR1 [1] = conditions: read-out: KD cyFolR1; Fab-format, generic multi-framework sub-libraries, 25° C.
Procedure: (§1) Immobilization of antigens (ligand): Recombinant antigens were diluted with PBST (10 mM phosphate, 150 mM sodium chloride pH 7.4, 0.005% Tween 20) to […] injected at 30 μl/minute in vertical orientation. Injection of analytes: For ‘one-shot kinetics’ measurements, injection direction was changed to horizontal orientation, two-fold dilution series of purified Fab (varying concentration ranges) were injected simultaneously along separate channels 1-5, with association times of 200 s, and dissociation times of 600 s. Buffer (PBST) was injected along the sixth channel to provide an “in-line” blank for referencing. Association rate constants (kon) and dissociation rate constants (koff) were calculated using a simple one-to-one Langmuir binding model in ProteOn Manager v3.1 software by simultaneously fitting the association and dissociation sensorgrams. The equilibrium dissociation constant (KD) was calculated as the ratio koff/kon.
(§2) Immobilization of antigens (ligand): Recombinant antigens were diluted with PBST (10 mM phosphate, 150 mM sodium chloride pH 7.4, 0.005% Tween 20) to 10 μg/ml, then injected at 30 μl/minute in vertical orientation. Injection of analytes: For ‘one-shot kinetics’ measurements, injection direction was changed to horizontal orientation, two-fold dilution series of purified Fab (varying concentration ranges) were injected simultaneously along separate channels 1-5, with association times of 150 or 200 s, and dissociation times of 200 or 600 s, respectively. Buffer (PBST) was injected along the sixth channel to provide an “in-line” blank for referencing. Association rate constants (kon) and dissociation rate constants (koff) were calculated using a simple one-to-one Langmuir binding model in ProteOn Manager v3.1 software by simultaneously fitting the association and dissociation sensorgrams. The equilibrium dissociation constant (KD) was calculated as the ratio koff/kon.
Target sequence in this assay (as listed by the source): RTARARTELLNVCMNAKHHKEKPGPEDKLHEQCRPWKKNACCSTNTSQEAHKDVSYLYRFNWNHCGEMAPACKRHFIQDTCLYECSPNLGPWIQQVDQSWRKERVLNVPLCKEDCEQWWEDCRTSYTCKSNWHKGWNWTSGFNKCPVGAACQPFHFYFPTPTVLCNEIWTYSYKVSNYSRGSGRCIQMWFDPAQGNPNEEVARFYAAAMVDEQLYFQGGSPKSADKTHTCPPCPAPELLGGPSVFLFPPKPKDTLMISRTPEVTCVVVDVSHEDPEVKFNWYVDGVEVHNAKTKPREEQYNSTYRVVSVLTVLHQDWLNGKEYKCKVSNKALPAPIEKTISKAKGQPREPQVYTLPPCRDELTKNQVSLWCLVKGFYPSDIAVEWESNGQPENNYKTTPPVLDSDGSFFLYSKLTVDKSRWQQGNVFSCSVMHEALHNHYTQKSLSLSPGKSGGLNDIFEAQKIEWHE
Target sequence in this assay (as listed by the source partner): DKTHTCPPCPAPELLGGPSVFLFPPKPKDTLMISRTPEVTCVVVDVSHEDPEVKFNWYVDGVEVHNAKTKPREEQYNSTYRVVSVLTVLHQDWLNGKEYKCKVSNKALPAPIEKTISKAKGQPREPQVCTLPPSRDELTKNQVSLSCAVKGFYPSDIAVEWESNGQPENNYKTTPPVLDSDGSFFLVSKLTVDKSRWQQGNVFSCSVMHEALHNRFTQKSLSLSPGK

human FolR1 [2] = target: T1, human FolR1 (Homo sapiens, UniProt P15328); conditions: read-out: KD huFolR1; Fab-format, generic multi-framework sub-libraries, 25° C.
Procedure: as §1, §2

murine FolR1 [3] = target: murine FolR1 (Mus musculus, UniProt P35846, C103A); conditions: Fab-format, generic multi-framework sub-libraries, 25° C.
Procedure: as §1, §2

cynomolgus FolR1 [4] = conditions: IgG injected for 60 seconds at 500 nM
Procedure: (§3) Binding of FolR1 binders as IgG or in the T-cell bispecific format to different recombinant folate receptors (human FolR1, 2 and 3, murine FolR1 and cynomolgus FolR1; all as Fc fusions) was assessed by surface plasmon resonance (SPR). All SPR experiments were performed on a Biacore T200 at 25° C. with HBS-EP as running buffer (0.01 M HEPES pH 7.4, 0.15 M NaCl, 3 mM EDTA, 0.005% Surfactant P20, Biacore, Freiburg/Germany).
(§4) First the anti-FolR1 IgGs were analyzed by single injections (Table 1) to characterize their crossreactivity (to human, murine and cyno FolR1) and specificity (to human FolR1, human FolR2, human FolR3). Recombinant biotinylated monomeric Fc fusions of human, cynomolgus and murine Folate Receptor 1 (FolR1-Fc) or human Folate Receptor 2 and 3 (FolR2-Fc, FolR3-Fc) were directly coupled on a SA chip using the standard coupling instruction (Biacore, Freiburg/Germany). The immobilization level was about 300-400 RU. The IgGs were injected for 60 seconds at a concentration of 500 nM.
Target sequence in this assay (as listed by the source): as the sequence (as listed by the source) above

human FolR1 [5] = target: T1, human FolR1; conditions: IgG injected for 60 seconds at 500 nM
Procedure: as §3, §4

human FolR2 [6] = target: T2, human FolR2 (Homo sapiens, UniProt P14207); conditions: IgG injected for 60 seconds at 500 nM
Procedure: as §3, §4
Target sequence in this assay (P14207 with tags, fused parts or gaps): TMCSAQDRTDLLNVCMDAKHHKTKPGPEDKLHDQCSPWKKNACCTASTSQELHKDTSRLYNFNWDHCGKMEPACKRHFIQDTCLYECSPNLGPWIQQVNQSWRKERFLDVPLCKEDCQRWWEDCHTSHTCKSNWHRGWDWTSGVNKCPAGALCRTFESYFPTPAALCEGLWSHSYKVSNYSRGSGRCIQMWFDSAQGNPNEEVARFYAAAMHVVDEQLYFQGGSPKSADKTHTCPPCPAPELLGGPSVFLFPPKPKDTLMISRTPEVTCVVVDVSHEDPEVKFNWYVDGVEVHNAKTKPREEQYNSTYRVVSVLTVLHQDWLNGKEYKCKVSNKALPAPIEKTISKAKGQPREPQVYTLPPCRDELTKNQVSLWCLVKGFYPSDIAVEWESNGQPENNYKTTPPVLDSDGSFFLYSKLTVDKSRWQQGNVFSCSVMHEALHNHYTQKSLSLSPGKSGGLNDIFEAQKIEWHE
Target sequence in this assay (P01857 104-330 isoform P01857-1 Y232C/T249S/L251A/Y290V/H318R/Y319F partner): as the sequence (as listed by the source partner) above

human FolR3 [7] = target: T3, human FolR3 (Homo sapiens, UniProt P41439); conditions: IgG injected for 60 seconds at 500 nM
Procedure: as §3, §4

murine FolR1 [8] = target: murine FolR1 (Mus musculus, UniProt P35846); conditions: IgG injected for 60 seconds at 500 nM
Procedure: as §3, §4

human FolR2 [9] = target: T2, human FolR2; test: SPR affinity of selected Fab clones (ProteOn XPR36); assay type: binding; design: the extracellular domain of the antigen linked to the hinge region of Fc-knob; made in house; host or cells: HEK293 EBNA; conditions: Fab-format, generic multi-framework sub-libraries, 25° C.
Target sequence in this assay (P14207 with tags, fused parts or gaps): as the sequence (P14207 with tags, fused parts or gaps) above
Procedure: (§5) Immobilization of antigens (ligand): Recombinant antigens were diluted with PBST (10 mM phosphate, 150 mM sodium chloride pH 7.4, 0.005% Tween 20) to 10 then injected at 30 μl/minute in vertical orientation. Injection of analytes: For ‘one-shot kinetics’ measurements, injection direction was changed to horizontal orientation, two-fold dilution series of purified Fab (varying concentration ranges) were injected simultaneously along separate channels 1-5, with association times of 200 s, and dissociation times of 600 s. Buffer (PBST) was injected along the sixth channel to provide an “in-line” blank for referencing. Association rate constants (kon) and dissociation rate constants (koff) were calculated using a simple one-to-one Langmuir binding model in ProteOn Manager v3.1 software by simultaneously fitting the association and dissociation sensorgrams. The equilibrium dissociation constant (KD) was calculated as the ratio koff/kon.

human FolR3 [10] = target: T3, human FolR3; test: as above; assay type: binding; design: the extracellular domain of the antigen linked to the hinge region of Fc-knob; made in house; host or cells: HEK293 EBNA; conditions: Fab-format, generic multi-framework sub-libraries, 25° C.
Procedure: as §5

T1 sequence (P15328 with tags, fused parts or gaps): as the sequence (as listed by the source) above, with T2I, R4W, K37R, P146A, Y171H counted along it
T1 sequence (P01857 104-330 isoform P01857-1 Y232C/T249S/L251A/Y290V/H318R/Y319F partner): as the sequence (as listed by the source partner) above
T3 sequence (P41439 with tags, fused parts or gaps): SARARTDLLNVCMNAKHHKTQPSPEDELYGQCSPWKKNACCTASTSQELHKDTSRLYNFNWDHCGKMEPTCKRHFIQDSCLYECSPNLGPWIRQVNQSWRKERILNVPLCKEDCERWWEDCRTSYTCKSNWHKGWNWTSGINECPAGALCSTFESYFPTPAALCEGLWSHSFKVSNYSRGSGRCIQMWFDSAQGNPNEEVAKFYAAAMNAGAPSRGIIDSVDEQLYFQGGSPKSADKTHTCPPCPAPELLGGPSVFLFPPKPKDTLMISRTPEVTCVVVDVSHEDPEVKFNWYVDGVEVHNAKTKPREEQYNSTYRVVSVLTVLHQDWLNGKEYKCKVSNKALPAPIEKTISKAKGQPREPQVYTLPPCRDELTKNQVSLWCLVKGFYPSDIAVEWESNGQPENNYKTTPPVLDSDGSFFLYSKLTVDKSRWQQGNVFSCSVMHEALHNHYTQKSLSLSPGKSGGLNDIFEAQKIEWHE
T3 sequence (P01857 104-330 isoform P01857-1 Y232C/T249S/L251A/Y290V/H318R/Y319F partner): as the sequence (as listed by the source partner) above
Sequence of murine FolR1 (Mus musculus, UniProt P35846) (P35846 with tags, fused parts or gaps): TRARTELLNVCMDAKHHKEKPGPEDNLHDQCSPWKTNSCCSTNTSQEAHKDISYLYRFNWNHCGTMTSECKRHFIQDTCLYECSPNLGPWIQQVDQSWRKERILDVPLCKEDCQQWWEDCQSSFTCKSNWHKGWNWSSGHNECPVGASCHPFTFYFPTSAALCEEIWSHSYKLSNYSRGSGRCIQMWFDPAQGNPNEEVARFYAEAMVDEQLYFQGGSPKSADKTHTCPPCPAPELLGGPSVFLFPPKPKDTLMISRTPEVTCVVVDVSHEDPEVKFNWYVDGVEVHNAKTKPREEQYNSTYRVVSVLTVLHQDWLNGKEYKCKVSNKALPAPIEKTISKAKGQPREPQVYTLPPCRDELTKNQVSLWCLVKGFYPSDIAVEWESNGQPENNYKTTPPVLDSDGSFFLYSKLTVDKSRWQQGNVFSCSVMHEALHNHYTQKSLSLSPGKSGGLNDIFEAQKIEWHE
Sequence of murine FolR1 (Mus musculus, UniProt P35846) (as listed by the source partner): as the sequence (as listed by the source partner) above
Sequence of murine FolR1 (Mus musculus, UniProt P35846, C103A) (P35846 with tags, fused parts or gaps, stated change not applied): as the sequence (P35846 with tags, fused parts or gaps) above
Sequence of murine FolR1 (Mus musculus, UniProt P35846, C103A) (P01857 104-330 isoform P01857-1 Y232C/T249S/L251A/Y290V/H318R/Y319F partner): as the sequence (as listed by the source partner) above

B1: 5D9: anti-FolR1 clone, generic multi-framework library (Vk3_20/VH1_46); Fab and IgG (antibody, V domains shown)
VH: QVQLVQSGAEVKKPGASVKVSCKASGYTFTSYYMHWVRQAPGQGLEWMGIINPSGGSTSYAQKFQGRVTMTRDTSTSTVYMELSSLRSEDTAVYYCARSYIDMDYWGQGTLVTVSS
VL: EIVLTQSPGTLSLSPGERATLSCRASQSVSSSYLAWYQQKPGQAPRLLIYGASSRATGIPDRFSGSGSGTDFTLTISRLEPEDFAVYYCQQDNWSPTFGQGTKVEIK
Kd (cynomolgus FolR1 [1]): 5.9 nM | Kd (human FolR1 [2]): 8.6 nM | KD muFolR1 (murine FolR1 [3]): no binding | Binding to cyFolR1 (cynomolgus FolR1 [4]): + | Binding to huFolR1 (human FolR1 [5]): + | Binding to huFolR2 (human FolR2 [6]): + | Binding to huFolR3 (human FolR3 [7]): + | Binding to muFolR1 (murine FolR1 [8]): − | KD huFolR2 (human FolR2 [9]): no binding | KD huFolR3 (human FolR3 [10]): no binding

B2: 6B6: anti-FolR1 clone, generic multi-framework library (Vk3_20/VH1_46); Fab and IgG (antibody, V domains shown)
VH: QVQLVQSGAEVKKPGASVKVSCKASGYTFTSYYMHWVRQAPGQGLEWMGIINPSGGSTSYAQKFQGRVTMTRDTSTSTVYMELSSLRSEDTAVYYCARSYVDMDYWGQGTLVTVSS
VL: EIVLTQSPGTLSLSPGERATLSCRASQSVSSSYLAWYQQKPGQAPRLLIYGASSRATGIPDRFSGSGSGTDFTLTISRLEPEDFAVYYCQQDIWSPTFGQGTKVEIK
Kd (cynomolgus FolR1 [1]): 9.4 nM | Kd (human FolR1 [2]): 14.5 nM | KD muFolR1 (murine FolR1 [3]): no binding | Binding to cyFolR1 (cynomolgus FolR1 [4]): + | Binding to huFolR1 (human FolR1 [5]): + | Binding to huFolR2 (human FolR2 [6]): + | Binding to huFolR3 (human FolR3 [7]): + | Binding to muFolR1 (murine FolR1 [8]): − | KD huFolR2 (human FolR2 [9]): no binding | KD huFolR3 (human FolR3 [10]): no binding

B3: 11F8: anti-FolR1 clone, generic multi-framework library (Vk_1_5/VH_1_69); Fab and IgG (antibody, V domains shown)
VH: QVQLVQSGAEVKKPGSSVKVSCKASGGTFSSYAISWVRQAPGQGLEWMGGIIPIFGTANYAQKFQGRVTITADKSTSTAYMELSSLRSEDTAVYYCARAVFYRAWYSFDYWGQGTTVTVSS
VL: DIQMTQSPSTLSASVGDRVTITCRASQSISSWLAWYQQKPGKAPKLLIYDASSLESGVPSRFSGSGSGTEFTLTISSLQPDDFATYYCQQYTSPPPTFGQGTKVEIK
Kd (cynomolgus FolR1 [1]): 794 nM | Kd (human FolR1 [2]): 632 nM | Binding to cyFolR1 (cynomolgus FolR1 [4]): + | Binding to huFolR1 (human FolR1 [5]): + | Binding to huFolR2 (human FolR2 [6]): + | Binding to huFolR3 (human FolR3 [7]): + | Binding to muFolR1 (murine FolR1 [8]): + | KD huFolR2 (human FolR2 [9]): no binding | KD huFolR3 (human FolR3 [10]): no binding

From patent US10781262B2, “Combination therapy of T cell activating bispecific antigen binding molecules and PD-1 axis binding antagonists” (Hoffmann-La Roche Inc., priority 2014, dated 2020)
